Test results taken from patent US20170190775A1 (published 2017).

T1: cynomolgus TREM-1 (cTREM-1) protein (cynomolgus monkey)
T1 construct: also called cyno TREM-1
T1 chain: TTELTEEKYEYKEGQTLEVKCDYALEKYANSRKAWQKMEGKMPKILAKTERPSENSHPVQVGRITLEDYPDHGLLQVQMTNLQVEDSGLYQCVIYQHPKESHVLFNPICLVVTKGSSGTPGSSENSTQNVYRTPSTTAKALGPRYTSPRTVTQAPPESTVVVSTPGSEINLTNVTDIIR

T2: full length cynomolgus monkey (c)TREM-1 on cells (cynomolgus monkey)
T2 construct: also called cynoTREM-1; cTREM-1 reporter cell
T2 chain: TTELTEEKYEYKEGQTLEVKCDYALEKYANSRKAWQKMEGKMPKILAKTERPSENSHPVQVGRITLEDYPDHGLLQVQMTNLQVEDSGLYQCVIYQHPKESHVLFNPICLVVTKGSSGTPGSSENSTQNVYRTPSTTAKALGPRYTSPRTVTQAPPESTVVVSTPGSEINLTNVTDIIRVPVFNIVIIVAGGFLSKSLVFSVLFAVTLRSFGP


Experiments:
[1] = target: T1, cynomolgus TREM-1 (cTREM-1) protein; assay: SPR, mAb captured by anti-Fc, cTREM-1 as analyte
Protocol: Binding studies were performed on a ProteOn Analyzer (BioRad) that measures molecular interactions in real time through surface plasmon resonance. Experiments were run at 25° C. and the samples were stored at 15° C. in the sample compartment. The signal (RU, response units) reported by the ProteOn is directly correlated to the mass on the individual sensor chip surfaces in six parallel flow cells. Anti-human Fc monoclonal or anti-murine Fc polyclonal antibody from Biacore human or mouse Fc capture kits were immobilized in horizontal direction onto flow cells of a GLM sensor chip according to the manufacturer's instructions. The final immobilization level of capture antibody was approximately 2600-6000 RU in different experiments. […] Binding of hTREM-1 or cTREM-1 proteins was conducted by injecting analyte (antigen) over all flow cells in horizontal direction to allow for comparative analyses of binding to different captured anti-TREM-1 antibodies relative to binding to the reference interspot. hTREM-1 or cTREM-1 proteins was diluted serially 1:3 to 1.2-100 nM or into running buffer, injected at 100 μl/min for 250 s and allowed to dissociate for 600s. The GLM surface was regenerated after each injection cycle of analyte via two 18 s injections of 10 mM Glycine, pH 1.7 and 50 mM NaOH at 100 μl/min. This regeneration step removed the anti-TREM-1 antibody and any bound TREM-1 protein from the immobilized capture antibody surface, and allowed for the subsequent binding of the next interaction sample pair.

[2] = target: T2, full length cynomolgus monkey (c)TREM-1 …; assay: binding to cynomolgus monkey PBMCs, FIG. 6A
[3] = target: T2, full length cynomolgus monkey (c)TREM-1 …; assay: binding to cynomolgus monkey PBMCs, FIG. 6B

| Kd [1] [nM] | binding result [2] | binding result [3] | Binder |
| --- | --- | --- | --- |
| 0.97 | – | – | mAb 0122 (antibody, human IgG4 S228P, kappa, V domains shown, Second humanised TREM-1 antibody; also called 14F113/14F69 hz variant LC M4L) VH: EVQLVESGGGLVQPGGSLKLSCAASGFTFSTYAMHWVRQASGKGLEWVGRIRTKSSNYATYYAASVKGRFTISRDDSKNTAYLQMNSLKTEDTAVYYCTRDMGQRRQFAYWGQGTLVTVSS VL: DIVLTQSPDSLAVSLGERATINCRASESVDTFDYSFLHWYQQKPGQPPKLLIYRASNLESGVPDRFSGSGSGTDFTLTISSLQAEDVAVYYCQQSNEDPYTFGQGTKLEIKR |
| 1.1 | – | – | mAb 0124 (antibody, V domains shown, Recombinant; LC G68R (Kabat) in CDR grafted 14F113; also called 14F113/14F69 hz variant LC G68R; 14F113 hz variant LC G68R) VH: EVQLVESGGGLVQPGGSLKLSCAASGFTFSTYAMHWVRQASGKGLEWVGRIRTKSSNYATYYAASVKGRFTISRDDSKNTAYLQMNSLKTEDTAVYYCTRDMGQRRQFAYWGQGTLVTVSS VL: DIVMTQSPDSLAVSLGERATINCRASESVDTFDYSFLHWYQQKPGQPPKLLIYRASNLESGVPDRFSGSGSRTDFTLTISSLQAEDVAVYYCQQSNEDPYTFGQGTKLEIK |
| 1.2 | binds | – | mAb 0048 (antibody, V domains shown, also called 14F11A1B1; 14F11) VH: EVQLVESGGGLVQPKGSLKLSCAASGFTFNTYAMHWVRQAPGKGLEWVARIRTKSNNYATYYVDSVKDRITISRDDSQSMLYLQMNNLKTEDTAMYYCVRDMGIRRQFAYWGQGTLVTVSA VL: DIVLTQSPASLAVSLGQRATISCRASESVDSFGISFMHWYQQSPGQPPKLLIYRASNLESGIPARFSGSGSRTDFTLTINPVEADDVATYYCQQSNEDPYTFGGGTKLEIKR |
| 0.67 | – | – | mAb 0059 (antibody, IgG1, V domains shown, Recombinant; also called 14F113/14F69; 14F113A1B1C1 (recombinant)) VH: EVQLVESGGGLVQPKGSLKLSCGASDFTFNTYAMHWVRQAPGMALEWVARIRTKSSNYATYYADSVKDRFTISRDDSQNMLYLQMNNLKTEDTAMYYCVRDMGQRRQFAYWGQGTLVTVSA VL: DIVLTQSPASLAVSLGQRATISCRASESVDTFDYSFLHWYQQKPGQPPKLLIYRASNLESGIPARFSGSGSRTDFTLTINPVEADDVATYYCQQSNEDPYTFGGGTKLEIER |
| – | binds | – | mAb 0054 (antibody, V domains shown, Hybridoma antibody 14F128A1; also called 14F128A1; 14F128) VH: EVQLVESGGGLVQPKGSLKLSCAASGFTFNTYAMHWVRQAPGKGLEWVARIRTKSNNYATYYVDSVKDRITISRDDSQSMLYLQMNNLKTEDTAMYYCVRDMGIRRQFAYWGQGTLVTVSA VL: DIVLTQSPASLAVSLGQRATISCRASESVDSFGISFMHWYQQSPGQPPKLLIYRASNLESGIPARFSGSGSRTDFTLTINPVEADDVATYYCQQSNEDPYTFGGGTKLEIKR |
| 12 | – | – | mAb 0068 (antibody, V domains shown, Recombinant; also called 14F128/14F11 (recombinant)) VH: EVQLVESGGGLVQPKGSLKLSCAASGFTFNTYAMHWVRQAPGKGLEWVARIRTKSNNYATYYVDSVKDRITISRDDSQSMLYLQMNNLKTEDTAMYYCVRDMGIRRQFAYWGQGTLVTVSA VL: DIVLTQSPASLAVSLGQRATISCRASESVDSFGISFMHWYQQSPGQPPKLLIYRASNLESGIPARFSGSGSRTDFTLTINPVEADDVATYYCQQSNEDPYTFGGGTKLEIKR |
| 4.7 | – | – | mAb 0067 (antibody, V domains shown, also called 14F11A1B1 (recombinant)) VH: EVQLVESGGGLVQPKGSLKLSCAASGFTFNTYAMHWVRQAPGKGLEWVARIRTKSNNYATYYVDSVKDRITISRDDSQSMLYLQMNNLKTEDTAMYYCVRDMGIRRQFAYWGQGTLVTVSA VL: DIVLTQSPASLAVSLGQRATISCRASESVDSFGISFMHWYQQSPGQPPKLLIYRASNLESGIPARFSGSGSRTDFTLTINPVEADDVATYYCQQSNEDPYTFGGGTKLEIKR |
| – | – | binds | mAb 0044 (antibody, IgG2a, V domains shown, Hybridoma antibody; also called 14F69A1; 14F69) VH: EVQLEESGGGLVQPKGSLKLSCGASDFTFNTYAMHWVRQAPGMALEWVARIRTKSSNYATYYADSVKDRFTISRDDSQNMLYLQMNNLKTEDTAMYYCVRDMGQRRQFAYWGQGTLVTVSA VL: DIVLTQSPASLAVSLGQRATISCRASESVDTFDYSFLHWYQQKPGQPPKLLIYRASNLESGIPARFSGSGSRTDFTLTINPVEADDVATYYCQQSNEDPYTFGGGTKLEIER |
